Experiments:
[1] = biological target: Intracellular part of Medicago truncatula Cytokinin Receptor 1 (MtCRE1′) (Medicago truncatula); test: dynamic light scattering
[2] = biological target: Intracellular part of Medicago truncatula Cytokinin Receptor 1 (MtCRE1′) (Medicago truncatula); test: SEC

Intracellular part of Medicago truncatula Cytokinin Receptor 1 (MtCRE1′) (domain or fragment)
stoichiometry N [1]: 2
stoichiometry N [2]: 2

— article PMC3716865
